According to the supplement of paper PMC7877785:
± gives the uncertainty stated by the source.

Assay: self-splicing fitness, log relative to wild type (ln ratio); higher = more splicing; Tetrahymena group I intron in knt gene, E. coli kanamycin selection, DiMSum; sequences stand for … in CUCUCU…GGAGGGAAAAGUUAUCAGGCAUGCACCUGGUAGCUAGUCUUUAAACCAAUAGAUUGCAUCGGUUUAAAAGGCAAGACCGUCAAAUUGCGGGAAAGGGGUCAACAGCCGUUCAGUACCAAGUCUCAGGGGAAACUUUGAGAUGGCCUUGCAAAGGGUAUGGUAAUAAGCUGACGGACAUGGUCCUAACCACGCAGCCAAGUCCUAAGUCAACAGAUCUUCUGUUGAUAUGGAUGCAGUUCACAGACUAAAUGUCGGUCGGGGAAGAUGUAUUCUUCUCAUAAGAUAUAGUCGGACCUCUCCUUAAUGGGAGCUAGCGGAUGAAGUGAUGCAACACUGGAGCCGCUGGGAACUAAUUUGUAUGCGAAAGUAUAUUGAUUAGUUUUGGAGUACUCGUGGUCG
Summary of the method: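 Fitness was computed with DiMSum as the error-weighted combination of replicate fold changes, kanamycin versus none, each normalised to wild type. The library randomised all eight intron nucleotides of the P1ex region, with the intron placed in the knt kanamycin-resistance gene on pET-22b(+) in E. coli BL21(DE3). Six replicate transformations were grown overnight at 37°C or 30°C on LB agar with or without 25 μg/mL kanamycin, plus 100 μg/mL carbenicillin, 50 μM IPTG and 0.2% rhamnose. Pooled colonies were amplicon-sequenced on an Illumina HiSeq 2500.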

Sequence: GUUAAGCAAUAUUACGAUUC
- self-splicing fitness (ln) (30 °C): 0.0872 ± 0.085
- self-splicing fitness (ln) (37 °C): -0.608 ± 0.11

Sequence: GUUAAGCAAUAUUACGCAGG
- self-splicing fitness (ln) (30 °C): -3.11 ± 0.38
- self-splicing fitness (ln) (37 °C): -2.47 ± 0.31

Sequence: GUUAAGCAAUAUUACGCCGC
- self-splicing fitness (ln) (30 °C): -3.02 ± 0.21
- self-splicing fitness (ln) (37 °C): -2.03 ± 0.31

Sequence: GUUAAGCAAUAUUACGCGUC
- self-splicing fitness (ln) (30 °C): -3.23 ± 0.26
- self-splicing fitness (ln) (37 °C): -1.96 ± 0.2

Sequence: GUUAAGCAAUAUUACGCUGU
- self-splicing fitness (ln) (30 °C): -2.62 ± 0.21
- self-splicing fitness (ln) (37 °C): -1.78 ± 0.17

Sequence: GUUAAGCAAUAUUACGGACG
- self-splicing fitness (ln) (30 °C): -1.07 ± 0.12
- self-splicing fitness (ln) (37 °C): -1.3 ± 0.14

Sequence: GUUAAGCAAUAUUACGGAGA
- self-splicing fitness (ln) (30 °C): -3.29 ± 0.26
- self-splicing fitness (ln) (37 °C): -2.57 ± 0.25

Sequence: GUUAAGCAAUAUUACGGCUA
- self-splicing fitness (ln) (30 °C): 0.289 ± 0.099
- self-splicing fitness (ln) (37 °C): 0.176 ± 0.1

Sequence: GUUAAGCAAUAUUACGGGCG
- self-splicing fitness (ln) (30 °C): -1.44 ± 0.1
- self-splicing fitness (ln) (37 °C): -0.388 ± 0.11

Sequence: GUUAAGCAAUAUUACGGGUA
- self-splicing fitness (ln) (30 °C): -2.01 ± 0.14
- self-splicing fitness (ln) (37 °C): -1.39 ± 0.12

Sequence: GUUAAGCAAUAUUACGGGUG
- self-splicing fitness (ln) (30 °C): -3.29 ± 0.15
- self-splicing fitness (ln) (37 °C): -2.39 ± 0.14

Sequence: GUUAAGCAAUAUUACGGUCC
- self-splicing fitness (ln) (30 °C): -0.666 ± 0.12
- self-splicing fitness (ln) (37 °C): 0.191 ± 0.15

Sequence: GUUAAGCAAUAUUACGGUCU
- self-splicing fitness (ln) (30 °C): -2.3 ± 0.14
- self-splicing fitness (ln) (37 °C): -0.0437 ± 0.12

Sequence: GUUAAGCAAUAUUACGGUUA
- self-splicing fitness (ln) (30 °C): -1.33 ± 0.096
- self-splicing fitness (ln) (37 °C): -0.554 ± 0.096

Sequence: GUUAAGCAAUAUUACGUCAG
- self-splicing fitness (ln) (37 °C): -2.22 ± 0.4

Sequence: GUUAAGCAAUAUUACGUGGC
- self-splicing fitness (ln) (37 °C): -2.1 ± 0.33

Sequence: GUUCAGCAAUAUUACGAAAA
- self-splicing fitness (ln) (30 °C): -0.216 ± 0.13
- self-splicing fitness (ln) (37 °C): 0.45 ± 0.15

Sequence: GUUCAGCAAUAUUACGAAUG
- self-splicing fitness (ln) (30 °C): -0.469 ± 0.076
- self-splicing fitness (ln) (37 °C): 0.0253 ± 0.11

Sequence: GUUCAGCAAUAUUACGACAC
- self-splicing fitness (ln) (30 °C): -0.34 ± 0.15
- self-splicing fitness (ln) (37 °C): 0.897 ± 0.18

Sequence: GUUCAGCAAUAUUACGACUA
- self-splicing fitness (ln) (30 °C): -1.28 ± 0.17
- self-splicing fitness (ln) (37 °C): -0.368 ± 0.15

Sequence: GUUCAGCAAUAUUACGAUGC
- self-splicing fitness (ln) (30 °C): -0.236 ± 0.17
- self-splicing fitness (ln) (37 °C): 0.2 ± 0.14

Sequence: GUUCAGCAAUAUUACGCAGA
- self-splicing fitness (ln) (30 °C): -1.72 ± 0.2
- self-splicing fitness (ln) (37 °C): -1.3 ± 0.17

Sequence: GUUCAGCAAUAUUACGCAGU
- self-splicing fitness (ln) (30 °C): -1.18 ± 0.14
- self-splicing fitness (ln) (37 °C): 0.201 ± 0.22

Sequence: GUUCAGCAAUAUUACGCCGU
- self-splicing fitness (ln) (30 °C): -1.57 ± 0.1
- self-splicing fitness (ln) (37 °C): -0.339 ± 0.12

Sequence: GUUCAGCAAUAUUACGCGAC
- self-splicing fitness (ln) (30 °C): -3.9 ± 0.29
- self-splicing fitness (ln) (37 °C): -1.22 ± 0.29

Sequence: GUUCAGCAAUAUUACGCGCA
- self-splicing fitness (ln) (30 °C): -1.04 ± 0.2
- self-splicing fitness (ln) (37 °C): 0.567 ± 0.21

Sequence: GUUCAGCAAUAUUACGCUAA
- self-splicing fitness (ln) (30 °C): -1.03 ± 0.2
- self-splicing fitness (ln) (37 °C): 0.184 ± 0.2

Sequence: GUUCAGCAAUAUUACGCUCG
- self-splicing fitness (ln) (30 °C): 0.167 ± 0.12
- self-splicing fitness (ln) (37 °C): 0.0872 ± 0.15

Sequence: GUUCAGCAAUAUUACGCUUA
- self-splicing fitness (ln) (30 °C): -0.682 ± 0.12
- self-splicing fitness (ln) (37 °C): -0.0254 ± 0.12

Sequence: GUUCAGCAAUAUUACGCUUC
- self-splicing fitness (ln) (30 °C): -0.641 ± 0.11
- self-splicing fitness (ln) (37 °C): -0.661 ± 0.14

Sequence: GUUCAGCAAUAUUACGGCAU
- self-splicing fitness (ln) (30 °C): -0.334 ± 0.067
- self-splicing fitness (ln) (37 °C): 0.567 ± 0.072

Sequence: GUUCAGCAAUAUUACGGGCC
- self-splicing fitness (ln) (30 °C): -3.61 ± 0.2
- self-splicing fitness (ln) (37 °C): -2.25 ± 0.2

Sequence: GUUCAGCAAUAUUACGGGGG
- self-splicing fitness (ln) (30 °C): -1.52 ± 0.13
- self-splicing fitness (ln) (37 °C): -1.4 ± 0.16

Sequence: GUUCAGCAAUAUUACGGUUA
- self-splicing fitness (ln) (30 °C): -0.817 ± 0.098
- self-splicing fitness (ln) (37 °C): -0.352 ± 0.082

Sequence: GUUCAGCAAUAUUACGUAGU
- self-splicing fitness (ln) (30 °C): -0.247 ± 0.11
- self-splicing fitness (ln) (37 °C): 0.369 ± 0.11

Sequence: GUUCAGCAAUAUUACGUGCC
- self-splicing fitness (ln) (30 °C): -2.59 ± 0.2
- self-splicing fitness (ln) (37 °C): -1.19 ± 0.19

Sequence: GUUCAGCAAUAUUACGUGGU
- self-splicing fitness (ln) (30 °C): -1.03 ± 0.057
- self-splicing fitness (ln) (37 °C): -0.621 ± 0.079

Sequence: GUUCAGCAAUAUUACGUGUG
- self-splicing fitness (ln) (30 °C): -0.881 ± 0.066
- self-splicing fitness (ln) (37 °C): -0.806 ± 0.084

Sequence: GUUCAGCAAUAUUACGUUUU
- self-splicing fitness (ln) (30 °C): -0.661 ± 0.052
- self-splicing fitness (ln) (37 °C): -0.216 ± 0.062

Sequence: GUUGAGCAAUAUUACGAAUC
- self-splicing fitness (ln) (30 °C): -1.91 ± 0.26
- self-splicing fitness (ln) (37 °C): 0.505 ± 0.25

Sequence: GUUGAGCAAUAUUACGACAC
- self-splicing fitness (ln) (30 °C): -0.129 ± 0.18
- self-splicing fitness (ln) (37 °C): -0.362 ± 0.19

Sequence: GUUGAGCAAUAUUACGAGAU
- self-splicing fitness (ln) (30 °C): -2.7 ± 0.19
- self-splicing fitness (ln) (37 °C): -2.81 ± 0.31
